The labels stand for the following.
B1: ZBED3 (parent)
chain: GPGFHAGTSALWRHLRSAHRRELE
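Further: lentivirally expressed fusions sorted by FACS into six bins by GFP to DsRed ratio, PSI derived from sequencing read proportions per bin multiplied by bin number.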

The data set covers variants of B1. Briefly: protein stability index of a GFP-peptide fusion (GPS, HEK-293T) (PSI 1-6); higher = more stable. As to conditions: c terminus: a fixed tail appended.
Regarding GPGFHAGTSALWRHLRSAHRRLLE [E22L], the protein stability index was determined as 2.4. GPGFHAGTSALWRHLRSAHRRHLE [E22H]: the protein stability index is 3.09. For the variant GPGFHAGTSALWRHLRSAHRRILE [E22I], the protein stability index amounted to 1.95. On to GPGFHAGTSALWRHLRSAHRRWLE [E22W], for which the protein stability index was determined as 2.25. As to GPGFHAGTSALWRHLRSAHRRQLE [E22Q], the protein stability index was determined as 1.72. Take GPGFHAGTSALWRHLRSAHRRKLE [E22K]: the protein stability index is 1.97. Regarding GPGFHAGTSALWRHLRSAHRRNLE [E22N], the protein stability index is 1.95.

As to GPGFHAGTSALWRHLRSAHRRMLE [E22M], the protein stability index came out at 2.38. Turning to GPIFHAGTSALWRHLRSAHRRELE [G3I], the protein stability index turned out to be 2.5. GPEFHAGTSALWRHLRSAHRRELE [G3E]: the protein stability index came to 3.67. Under GPPFHAGTSALWRHLRSAHRRELE [G3P] stands 3.38. On to GPAFHAGTSALWRHLRSAHRRELE [G3A], for which the protein stability index is 3.22. For the variant GPCFHAGTSALWRHLRSAHRRELE [G3C], the protein stability index worked out at 3.23. For GPVFHAGTSALWRHLRSAHRRELE [G3V], the protein stability index was 3.1. In the case of GPSFHAGTSALWRHLRSAHRRELE [G3S], the protein stability index stood at 2.9.

Take GPMFHAGTSALWRHLRSAHRRELE [G3M]: the protein stability index is 3.16. In the case of GPQFHAGTSALWRHLRSAHRRELE [G3Q], the protein stability index was determined as 2.45. On to GPNFHAGTSALWRHLRSAHRRELE [G3N], for which the protein stability index was found to be 3.56. Turning to GPTFHAGTSALWRHLRSAHRRELE [G3T], the protein stability index was found to be 3.75.

As to GPYFHAGTSALWRHLRSAHRRELE [G3Y], the protein stability index is 3.36.

As to GPGFHAGTDALWRHLRSAHRRELE [S9D], the protein stability index worked out at 2.99.

GPGFHAGTYALWRHLRSAHRRELE [S9Y]: the protein stability index turned out to be 3.23. As for GPGFHAGTGALWRHLRSAHRRELE [S9G], the protein stability index was determined as 1.71. Under GPGFHAGTLALWRHLRSAHRRELE [S9L] stands 3.28; under GPGFHAGTQALWRHLRSAHRRELE [S9Q], 2.96. Under GPGFHAGTEALWRHLRSAHRRELE [S9E] stands 3.25; under GPGFHAGTMALWRHLRSAHRRELE [S9M], 2.44; under GPGFHAPTSALWRHLRSAHRRELE [G7P], 2.23.

Take GPGFHATTSALWRHLRSAHRRELE [G7T]: the protein stability index stood at 2.21. Take GPGFHAITSALWRHLRSAHRRELE [G7I]: the protein stability index was found to be 2.31. GPGFHPGTSALWRHLRSAHRRELE [A6P]: the protein stability index was 2.77. The same measure for GPGFHVGTSALWRHLRSAHRRELE [A6V]: 1.85. Regarding GPGFHLGTSALWRHLRSAHRRELE [A6L], the protein stability index amounted to 2.24. GPGFHTGTSALWRHLRSAHRRELE [A6T]: the protein stability index came to 2.33. The same measure for GPGFHAGTSALWRHLRSAQRRELE [H19Q]: 2.2; for GPGFHAGTSALWRHLRSATRRELE [H19T]: 2.14. The same measure for GPGFHAGTSALWRHLRSANRRELE [H19N]: 1.58; for GPGFHAGTSALWRHLRSAGRRELE [H19G]: 2.14. As to GPGFHAGTSALWRHLRSAYRRELE [H19Y], the protein stability index is 2.5. The same measure for GPGFHAGTSALWRHLRSAERRELE [H19E]: 2.21; for GPGFHAGTSALWRHLRSAVRRELE [H19V]: 3.03; for GPGFHAGTSALWRHLRSADRRELE [H19D]: 2.03. Take GPGFHAGTSALWRHLRSALRRELE [H19L]: the protein stability index stood at 2.53. For GPGFHAGTSALWRHLRSAHTRELE [R20T], the protein stability index is 1.92.

On to GPGFHAGTSALWRHLRSAHMRELE [R20M], for which the protein stability index stood at 2.17. Turning to GPGFHAGTSALWRHLRSAHVRELE [R20V], the protein stability index came to 2.06. For GPGFHAGTSALWRHLRSAHWRELE [R20W], the protein stability index stood at 2.83. For GPGFHAGTSALWRHLRSAHFRELE [R20F], the protein stability index is 2.36. GPGFHAGTSALWRHLRSAHARELE [R20A]: the protein stability index was 1.82. The same measure for GPGFHAGTSALWRHLRSAHSRELE [R20S]: 1.86; for GPGFHAGTSALWRHLRSAHQRELE [R20Q]: 2.31. Under GPGFHAGTSALWRHLRSAHLRELE [R20L] stands 1.59.

With GPGFHAGTSALWRHLRSAHIRELE [R20I], the protein stability index turned out to be 1.74. Consider GPGFHAGTSALWRHLRSAHRVELE [R21V], for which the protein stability index worked out at 1.53.

Turning to GPGFHAGTSALWRHLRSAHRDELE [R21D], the protein stability index came out at 2.35. For GPGFHAGTSALWRHLRSAHRKELE [R21K], the protein stability index came to 2.51. For GPGFHAGTSALWRHLRSAHRQELE [R21Q], the protein stability index was 2.52. Turning to GPGFHAGTSALWRHLRSAHRLELE [R21L], the protein stability index amounted to 1.77. GPGFHAGTSALWRHLRSAHRIELE [R21I]: the protein stability index came to 1.97. Under GPGFHAGTSALWRRLRSAHRRELE [H14R] stands 2.32; under GPGFHAGTSALWRCLRSAHRRELE [H14C], 2.17. On to GPGFHAGTSALWRNLRSAHRRELE [H14N], for which the protein stability index was 2.16. As to GPGFHAGTSALWRSLRSAHRRELE [H14S], the protein stability index stood at 2.2.

With GPGFHAGTSALWRILRSAHRRELE [H14I], the protein stability index turned out to be 1.78. With GPGFHAGTSALWRGLRSAHRRELE [H14G], the protein stability index was found to be 2.76.

On to GYGFHAGTSALWRHLRSAHRRELE [P2Y], for which the protein stability index turned out to be 2.54. On to GWGFHAGTSALWRHLRSAHRRELE [P2W], for which the protein stability index was 2.18.

Turning to GAGFHAGTSALWRHLRSAHRRELE [P2A], the protein stability index is 3.48.

Regarding GFGFHAGTSALWRHLRSAHRRELE [P2F], the protein stability index came to 1.89. As for GTGFHAGTSALWRHLRSAHRRELE [P2T], the protein stability index stood at 3.01.

As to GQGFHAGTSALWRHLRSAHRRELE [P2Q], the protein stability index amounted to 4.32.

As for GGGFHAGTSALWRHLRSAHRRELE [P2G], the protein stability index was 3.2. GKGFHAGTSALWRHLRSAHRRELE [P2K]: the protein stability index was determined as 3.06.

As to GMGFHAGTSALWRHLRSAHRRELE [P2M], the protein stability index is 2.53. Under GDGFHAGTSALWRHLRSAHRRELE [P2D] stands 3.38; under GCGFHAGTSALWRHLRSAHRRELE [P2C], 1.37; under GNGFHAGTSALWRHLRSAHRRELE [P2N], 3.5. On to GPGFKAGTSALWRHLRSAHRRELE [H5K], for which the protein stability index amounted to 2.67. On to GPGFNAGTSALWRHLRSAHRRELE [H5N], for which the protein stability index stood at 3.06. For GPGFQAGTSALWRHLRSAHRRELE [H5Q], the protein stability index was 3.44. Regarding GPGFSAGTSALWRHLRSAHRRELE [H5S], the protein stability index is 2.95. With GPGFRAGTSALWRHLRSAHRRELE [H5R], the protein stability index is 3.02.

Regarding GPGFDAGTSALWRHLRSAHRRELE [H5D], the protein stability index was determined as 3.69.

As to GPGFAAGTSALWRHLRSAHRRELE [H5A], the protein stability index is 3.33. With GPGFWAGTSALWRHLRSAHRRELE [H5W], the protein stability index is 2.76.

Take GPGFHAGTSALWVHLRSAHRRELE [R13V]: the protein stability index stood at 1.88. As for GPGFHAGTSALWIHLRSAHRRELE [R13I], the protein stability index is 1.88. Take GPGFHAGTSALWEHLRSAHRRELE [R13E]: the protein stability index amounted to 2.14. The same measure for GPGFHAGTSALWRHWRSAHRRELE [L15W]: 2.7; for GPGFHAGTSALWRHYRSAHRRELE [L15Y]: 2.1; for GPGFHAGTSALWRHDRSAHRRELE [L15D]: 1.87. Regarding GPGFHAGTSALWRHERSAHRRELE [L15E], the protein stability index is 1.76. As to GPGFHAGTSALWRHIRSAHRRELE [L15I], the protein stability index is 2.3.

For the variant GPGFHAGTSALWRHPRSAHRRELE [L15P], the protein stability index was 1.76.

The values are drawn from the supplement of paper PMC10567573.
